# B1: TPR t1 (parent)
# chain: GACCAAUCUGCCCUCAGAGCUCGAGAACAUCUUCGGAUGCAGAGGAGGCAGGCUUCGGUGGCGCGAUAGCGCCAACGUCCUCAACCUCCAAUGCAUCCCACCACAUGAUGAUGCCUGAAGAGCCUUGGUUUUUUG
# Variants of: B1
# Test: polymerase ribozyme fitness, log enrichment relative to wild type (log ratio); higher = more active; in vitro selection for triplet polymerase activity
# In short: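 To select mutant libraries of each subunit of a heterodimeric triplet polymerase ribozyme, built by PCR and transcribed, each was annealed with a biotinylated primer, partner subunit and triplets, then incubated frozen at −7 °C. Extended constructs were gel-excised, captured on streptavidin beads and amplified by RT-PCR, in one round carried out in triplicate. Illumina sequencing of input and output libraries kept genotypes with ≥10 input reads and ≥1 read per output. Fitness is the base-2 logarithm of genotype enrichment relative to wild-type enrichment, from inverse-variance-weighted replicate averages.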
row,Variant,polymerase ribozyme fitness (log ratio)
1,C13G G69U,-0.536
2,C13A G71U A119G,-1.25
3,C13U C20G C62G C104A G110U A121U,-6.79
4,C13U A16C G48C U59A A68G A100C A121C,-7.2
5,C13U C49U C79A C97G U109A,-7.98
6,C13U C73G C82U,-1.5
7,C13G A41G G48U U78G A91C,-5.06
8,C13G G47C A95C,-4.32
9,C13G G60A,-1.21
10,C13G G60U,-2.05
11,C13A U78C,-1.78
12,C13U C76U C86G,-2.13
13,C13U C40U G69U C88G,-2.27
14,C13G C89A A90C U130C,-3.77
15,C13G A29U C34A G61U A111U U133C,-1.41
16,C13G G19U,-4.76
17,C13G C72G C85A,-3.33
18,C13G G19U C73U G113U,-5.86
19,C13G C56G,-2.09
20,C13U A26U C40U,-2.81
21,C13U C34U G52C C70A,-5.48
22,C13A U112C,-0.888
23,C13G C53G,-1.53
24,C13U C20U G51A A66G C72U U109A,-6.73

row,Variant,polymerase ribozyme fitness (log ratio)
1,C13U A43C G71A C73G C82A C98G C102A A105U G117C,-6.52
2,C13G C40A G63A,-4.13
3,C13A U32C C49U G61A G77C U92C,-3.43
4,C13U C70G G122A,-2.19
5,C13U A16C A84U U129A,-3.48
6,C13U C28G C49U G69U,-1.49
7,C13U C73G,-0.465
8,C13A U21G G63A,-4.73
9,C13G U96C,-2.28
10,C13U A26G G60A G93C,-4.31
11,C13U C56U U106G C114G,-4.09
12,C13U A68G C73U U112G,-3.26
13,C13A U32A C53G,-6.04
14,C13U A24G G69U C104U A111U,-1.91
15,C13U A16C,-0.368
16,C13U C15U,-2.01
17,C13G G17U U38A C49G G61U,-4.63
18,C13U C20A,-2.74
19,C13U C20U,-0.561
20,C13G C15U C40U G117U G120A,-2.61
21,C13G C73A A90C U92C U126A,-5.92
22,C13G G52C G71A,-3.97
23,C13A U21C C62G,-2.82
24,C13U A105C,-1.68

row,Variant,polymerase ribozyme fitness (log ratio)
1,C13U C15U C20U U81A A90C C115U,-4.72
2,C13U A24G C70A C73A C104U A111U,-6.33
3,C13G G47A G63U U96G,-3.63
4,C13G C70U,-1.62
5,C13U C34U C62A G120C C124U,-6.16
6,C13U A18C A90C U96A,-2.27
7,C13G C123G,1.77
8,C13G C56U C85A,-3.69
9,C13U A41G C49G U87A,-0.587
10,C13U C56A C86A,-0.732
11,C13G A24G G48A G63C C86G U109A,-6.58
12,C13U C86G,-0.454
13,C13U C22U C86U,-4.45
14,C13U A16C C101G,-2.83
15,C13G G44A G63U G120U C123G,-0.471
16,C13G G61A C82A,-2.32
17,C13U C64G U87G G120A C123G,-5.41
18,C13G C49A C72U C88A,-2.56
19,C13A G69U,-1.23
20,C13A G69C,-3.15
21,C13A G69A,-3.52
22,C13G C56G C72G C88A G110C,-6.47
23,C13G G36C C56A U78A A90G G135U,-4.08
24,C13A U21A A29U,-4.11

row,Variant,polymerase ribozyme fitness (log ratio)
1,C13U A16C A91G C104U,-1.72
2,C13U C15U U32G C124A,-6.8
3,C13G C56U C86U U130A,-3.33
4,C13U A18C C88G U92A,-2.48
5,C13G A111G C115U,-4.46
6,C13U A37U A66G,-0.629
7,C13G C72U U132A,-2.7
8,C13G A46C U78C C86A,-4.39
9,C13G C82A A84G C123A,-0.276
10,C13G C53U G113A G128U,-5.15
11,C13U C28G,-1.58
12,C13G C22U,-3.6
13,C13U C49A G71A,-0.504
14,C13G C49U C82A C124G U125A,0.252
15,C13U C53U,0.405
16,C13U C53G,-0.309
17,C13U C56U U92G G93C C115A G120A,-0.609
18,C13U A50U G77C,-1
19,C13U C79G A83G C89G,-4.49
20,C13G U112A,0.148
21,C13U A41U G63U,-2.71
22,C13G A41U,-3.04
23,C13U A46G,-1.03
24,C13G U78C A121C,0.61

row,Variant,polymerase ribozyme fitness (log ratio)
1,C13U C62U A83C C89U,-0.547
2,C13G A18U A27G C53U C89A C104U,-5.29
3,C13U C34A U78G,-3.35
4,C13G G127C,-1.12
5,C13G G127U,-2.53
6,C13G C76U,-1.95
7,C13G A18U A27G C53U C70U C89A C104U,-5.81
8,C13U C15U A27C A29G C73U,-4.69
9,C13G A29C U54A A105C U106A,-3.03
10,C13G A29G G42A G117U,-6.21
11,C13G G36A A95C,-4.52
12,C13U A66U U116C,-0.492
13,C13G A50G U106A C124A G127U,1.19
14,C13G C72G C102G G113A G128A,-5.75
15,C13G A37U G42C C53U G77A A121G U130A,-1.06
16,C13G C114A,-2.59
17,C13G C72A,-0.649
18,C13G C72G,-0.869
19,C13U C85U C86G U106A,-0.767
20,C13G G39C G113C,-3.84
21,C13U C85G C123U,0.618
22,C13U C20U G61A U92C,-1.11
23,C13U C80U,-0.427
24,C13U C56U A121C U130G,1.59

row,Variant,polymerase ribozyme fitness (log ratio)
1,C13G U14G C15A G71A G122A,-4.63
2,C13G C124A G128U,-0.0372
3,C13G A16G U21A A29C A43U G69U C82G C114U,-4.09
4,C13G C62G U87C A121C,-3.3
5,C13U C22G A41U C72U U78G U81C G122A,-4.05
6,C13U A90U G117C,-3.61
7,C13G G47A C88U C102U U116G C123A,-4.62
8,C13G A43U G58A,-4.45
9,C13A G113U,-4.1
10,C13A G113A,-2.48
11,C13U A41G G48A G57U U132C,-1.47
12,C13G C49A,-1.26
13,C13U A18U G35U A50G G71A C124G,-7.8
14,C13G A74U,-2.54
15,C13G G19U G71C U112C,-4.61
16,C13G C64U A83U A95C G110A G120U,-3.89
17,C13A G71U,-1.35
18,C13U C56U C72G C80U C82U C86U U112C,-3.52
19,C13G A43U A84G A121C U131G,-1.74
20,C13G A26G,-3.54
21,C13G A105U U112C,-2.47
22,C13G G93A C101G U112C U130A,-4.16
23,C13U C70U,-0.262
24,C13G G47A C72U G110C,-7.11

row,Variant,polymerase ribozyme fitness (log ratio)
1,C13U C56U U81G A90G,-0.257
2,C13G A121U,0.0945
3,C13A U59G C89G U106C,-3.02
4,C13U A16G A50U A90G,-0.51
5,C13G G71C U112C G117C U125C,-5.67
6,C13G C15A A29G C64A C82A C104G U109G U131A,-5.2
7,C13U A16C U106G,-2.43
8,C13G G57U,-1.94
9,C13G C124U,0.0672
10,C13U C49A G71C G127C,-1.9
11,C13G C82A G128C,-3.69
12,C13G G93A G113C A118U,-5.1
13,C13G G39U G63U C115U,-5.78
14,C13U C28U C40U A74U C124A,-1.32
15,C13G C56G C88A G110C,-5.35
16,C13G G120A,-0.711
17,C13G C49A G60A C64U U96A U106G G110A U132C,-6.52
18,C13G G58U G60C G117U C123A,-2.6
19,C13G G51U A84C G127U,-6.59
20,C13G C89G,-3.05
21,C13U C20U A83G U96A,-3.34
22,C13U C34U G52C,-4.17
23,C13A G69U U129A,-1.63

# — the RNAGym collection of RNA variant scans (doi:10.1073/pnas.2313332121)
